Results on 9 molecules are retold here after patent US20250034594A1, “RNA-GUIDED GENOME RECOMBINEERING AT KILOBASE SCALE” (THE BOARD OF TRUSTEES OF THE LELAND STANFORD JUNIOR …, priority 2021, published 2025).

The chains are these.
B1: SSAP_303: SEQ ID NO: 472; Paenibacillus sp. BK033 (protein, listed as Paenibacillus sp.)
chain: AANTQLITIHNNLEKLIEAKKDAMPQGFNKTRFIQNCMTVLQDTYGIEKCEPTTVARTLLKGAFLGLDFFNKECYAIPYGASMNFQTDYKGERKLAKKYSVRKVKDIYAKLVRAGDVFEENITDGQQTIQFAPVPFNNGDIVGAFAVVLFHDGGMLYETMSIAEMEHIKENYSKKSKDTGKFSKAWEVSTGEMYKKTVLRRLCKNIELDFDTIEQARAFEDAADVDFNKKTAPQQTSPLNVVEAEYEVVNDGSATEAQSE
B2: SSAP_146: SEQ ID NO: 315; Mobilisporobacter senegalensis (protein, listed as Mobilisporobacter senegalensis)
chain: KDIKSALEKKVDKQDVKLTKSMSITDMIKALEPEIKKALPSVITPERFTRMALSAVNNTPKLAECSQMSFLAALMNAAQLGLEPNTSLGQAYLIPYQNKGKLECQFQLGFKGMIDLVYRNEKVQTIQAHCVYEEDYFEYELGLDSKLAHKPALANRGKMILVYAFFKLENGGFGFEVMSKEDIDIHALKYSKGYSSQYSPWKSNYEDMAKKTVIKKVLKYAPLKIDFQRAISVDETVKAEISIDMSEVQNEEIIDGQCTDVGEIEEK
B3: SSAP_177: SEQ ID NO: 346; Geomicrobium sp. JCM 19055 (protein, listed as Geomicrobium sp.)
chain: GYKGMIDLARRSGHIKSIYAHTVHANDEFEYELGLEPKLVHKPATGDRGNMEYAYAVAHFVDGGYQFEVFSHHDIEQVKKRSKAGNFGPWKTDYEEMAKKTVVRRMFKYLPISIEIQQHASQDETVRRDITEEAEKVDNIIDLPNYEDPNNIDVPDEEQDEQKDEKQKQQGSAEEIALDFK
B4: SSAP_284: SEQ ID NO: 453; Paenibacillus sp. VMFN-D1 (protein, listed as Paenibacillus sp.)
chain: AKALLENKLQERAAGASTPSTQGTSLKALLNSPAIKKRFDELLDKRSAQYMTSIVNLYNSDAMLQKAEPMSVISSCIVAATLDLPVDKNLGYAWIVPYSGKAQFQLGYKGYIQLALRTGQYKAINVIEVYEGELVKWNPLTEALELDFEKRKSDAVIGYAGYFELINGFRKSVYWTREQIESHRKKFSKSDFGWKKDYDAMAKKTIIRNMLSKWGILSIEMQDAYSKEIEAIPPLNNENEEDPPIDLTPEDYRVGDEPQDGKEQGEMNFE
B5: SSAP_124: SEQ ID NO: 293; Clostridium sp. AM58-1XD (protein, listed as Clostridium sp.)
chain: SVDVKNELEKRAAGTVNPAVKLTKNMTIVDMVRALEPEIKRALPTILTPERFMRMALSAINNTPELADCTPMSFIAALMNAAQLGMEPNTPLGQAYLIPYKNKGTLECQFQIGYKGLIDLAYRTGLIQVIQAQTVREFDSFEYQYGLDSRLTHRPGDGERGEITYIYGLFKLTNGGYGFEVSNKADMDAFAEKYSKSFGSRFSPWKENYEDMAKKTVIKRALKYAPVSSDFQKALSMDETIKSELSIDMSEIRNECQVEASGQEGAA
B6: SSAP_83: SEQ ID NO: 252 (protein)
chain: TLQAVCPTQDKAVESQLDQTKFELIKRTICKGTTDDEFQLFIHACKRTGLDPFMRQIFAVKRWDSAERREVMTIQTGIDGYRLIADRTGRYAPGRDAEFGYDAHGGLRWAKAYVKKMTPDGHWHEISATAFWTEYVQTTKDGRPTVFWMKKGHVMLSKCAEALALRKTFPAELSGIYTQEEMAQTMSLPDTKGDSQTIGSDKAYEIERSIDNDPEFKTQLLTRLQRAFGCKSFSDLPQDQFKNVKKVIENHQIKEKIA
B7: SSAP_33: SEQ ID NO: 202 (protein)
chain: TTNQVVTHKNFFNAPNVQKSFDDVWKGAGVQFATSILSVIQGNASLKSASNESIMTSAMKAAVLNLPIEPSLGRAYLVPYKGQVQFQLGYKGLIELAQRSGKYKSINAGPVYKSQFVSYDPLFEELTLDFTQPQDEVIGYFASFSLLNGFRKLTYWTKAEVEAHGKKFSKTFGNGPWKTDFDAMARKTVLKHILSIYGPLSVEMQTGMQNDESENDNATRDIKTAEPVNADQQLLEDLMNVDTETGEILEEVSELKDNGELDLKYEDPNAR
B8: SSAP_185: SEQ ID NO: 354; Pirellula sp. SH-Sr6A (protein, listed as Pirellula sp.)
chain: SEATKEAKPETAIAKKPNGIKDWLKSDALKTQIASVAPKHMAPERVMRIALNAVSRTPKLADCTPESFMRCLLDLSSWGLEPDGRHAHLIPYGTECTLVLDYKGLVTLAYRSGWVKKIHADVVFEGDIFVYSLGTVCQHIPWEFRDDANKPEHKGHFRAAYCVVTMADGIEKHEVMTASEIDAIKAKSRSGNSGPWKDHYTEMAKKTVYRRASKWLPLSPEQADAMERDDDRIIDAVSVAVTQRLSKAAMPLIGANETGDTE
B9: SSAP_118: SEQ ID NO: 287; Kribbella albertanoniae (protein, listed as Kribbella albertanoniae)
chain: ATADSVREELARSKEVERTQPKASNADNVIGLINRSLPEIAKALPGHVKPERIARIATTAVRVTPKLADCTQASFLGALLTAAQLGLEPNTPTGEAYLLPFGRNVQLIIGYRGYIKLANQSGQVRNIMAMTVYENDHFDYKYGSNPFLEHTPTLGQDPGPVKCWYACATFTNGGTNFVVLDKFKVEGYRARARSKDDGPWVTDYDAMARKTCIRRLAPYLPMSVELAQAMQVDEEVTAFTPGVSDPEVLATLAGVDTGTGEVQQ

The first experiment relates to gene editing with Cas9. Put plainly: Screen of 322 new SSAP proteins, gene editing activity with Cas9 (Table 5). Format: cell-based. Details: Cas9 with SSAP activity: scale not given here.
Details: not given
An outline of the steps: (§1)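 Sequence-mined SSAPs (n=322), synthesized; editing activity screened with Cas9 or dCas9.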
B1: the “Cas9 with SSAP activity” value is given as 1.686.
The same measure, in the same setting: the result for B2 reads −0.626; that for B3, −0.293; that for B4, −1.673.
B5: the “Cas9 with SSAP activity” value is reported as −5.698.
The same measure, in the same setting: with B6 the figure was −0.905.
Still for that read-out and setting: with B7 the figure was 1.307; with B8, −1.825; with B9, −9.467.

Still in this experiment, the particulars now being: normalized.
Consider B1, for which the “Cas9 with SSAP activity (normalized)” value is on record as 2.052.
With B2, the “Cas9 with SSAP activity (normalized)” value was −2.428.
In the case of B3, the “Cas9 with SSAP activity (normalized)” value was −0.508.
With B4, the “Cas9 with SSAP activity (normalized)” value is on record as −1.388.
For B5, the “Cas9 with SSAP activity (normalized)” value is given as −1.064.
Regarding B6, the “Cas9 with SSAP activity (normalized)” value is on record as −1.189.
On to B7, for which the “Cas9 with SSAP activity (normalized)” value was determined as 0.578.
On the same count and under the same terms, with B8 the figure was −0.708.

The next experiment deals with gene editing with dCas9. Put plainly: Screen of 322 new SSAP proteins, gene editing activity with dCas9 (Table 5). Format: cell-based. Details: dCas9 with SSAP activity: scale not given here.
Details: not given
An outline of the steps: as §1
Consider B1, for which the “dCas9 with SSAP activity” value is −9.053.
As to B2, the “dCas9 with SSAP activity” value is −9.454.
With B3, the “dCas9 with SSAP activity” value was −0.179.
In the case of B4, the “dCas9 with SSAP activity” value was −8.073.
With B5, the “dCas9 with SSAP activity” value is listed as −8.790.
For the molecule B6, the “dCas9 with SSAP activity” value is recorded as −9.459.
For the molecule B7, the “dCas9 with SSAP activity” value is recorded as −8.362.
For the molecule B8, the “dCas9 with SSAP activity” value is recorded as −8.201.
As to B9, the “dCas9 with SSAP activity” value is −9.467.

The same experiment, now with this note: normalized.
On to B2, for which the “dCas9 with SSAP activity (normalized)” value is reported as −1.210.
As to B3, the “dCas9 with SSAP activity (normalized)” value is given as −0.069.
For the molecule B4, the “dCas9 with SSAP activity (normalized)” value is recorded as −1.172.
As to B6, the “dCas9 with SSAP activity (normalized)” value is listed as −1.391.
Take B7: the “dCas9 with SSAP activity (normalized)” value is on record as −1.043.
For the molecule B8, the “dCas9 with SSAP activity (normalized)” value is −2.012.

The subject of another experiment is gene editing with Cas9 and dCas9. Put plainly: Screen of 322 new SSAP proteins, activity across all experiments (Cas9 and dCas9, Table 5). Details: scale not given here.
Details: not given
Format: cell-based. The procedure, abridged:
as §1
As to B1, the “Activity across all experiments” value was −3.683.
On to B2, for which the “Activity across all experiments” value is on record as −5.040.
Consider B3, for which the “Activity across all experiments” value is −0.236.
With B4, the “Activity across all experiments” value is −4.873.
For the molecule B5, the “Activity across all experiments” value is −7.244.
Turning to B6, the “Activity across all experiments” value was −5.182.
As to B7, the “Activity across all experiments” value is given as −3.528.
Take B8: the “Activity across all experiments” value is −5.013.
On the same count and under the same terms, the result for B9 reads −9.467.
